Data from US20180371091A1 (JOUNCE THERAPEUTICS, published 2018).

Key:
[1] = target: T1, human ICOS (full length, on cells) (human, UniProt Q9Y6W8 21-199); assay: cell-based ELISA on fixed, permeabilised CHO cells expressing human ICOS, chemiluminescence (RLU)
T1 construct: also called CHO-hICOS; human ICOS+ CHO cells
T1 sequence: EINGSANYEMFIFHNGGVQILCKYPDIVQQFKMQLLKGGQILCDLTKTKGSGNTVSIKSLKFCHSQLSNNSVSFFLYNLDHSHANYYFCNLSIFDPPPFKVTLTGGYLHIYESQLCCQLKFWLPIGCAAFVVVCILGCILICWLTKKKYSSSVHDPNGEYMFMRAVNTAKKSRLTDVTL
Description: Chinese Hamster ovary (CHO) cells stably transfected with ICOS overexpressing plasmid (CHO-ICOS) or control plasmid (CHO-vector) were used to screen positive clones from the peptide ELISA assay using established protocols. Briefly, cells grown in 96 well plates were fixed and permeabilized using 10% formalin with 0.1% Triton X-100. Following blocking, cells were incubated with primary antibody, followed by HRP-conjugated anti-mouse antibody. Detection was carried out using chemiluminescence substrate. Commercial anti-ICOS antibody, SP98 (Spring Biosciences) was used as a positive control and mouse IgG1 was used as a negative control for the assay.

[2] = target: T2, mouse ICOS-hFc (homodimeric, bivalent) (mouse; human, UniProt Q9WVS0 21-142); assay: BLI
T2 construct: also called mICOS-hFc; mouse ICOS-Fc; not shown: human IgG1 Fc (IgG1 backbone)
T2 sequence: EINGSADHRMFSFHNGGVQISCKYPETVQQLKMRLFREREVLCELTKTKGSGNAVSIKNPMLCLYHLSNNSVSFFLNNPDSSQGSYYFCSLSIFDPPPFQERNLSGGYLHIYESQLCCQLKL
Description: (§1) Cross-reactivity measurements were conducted using BLI technology with antibody panels being screened for binding to human, mouse, and cynomolgus ICOS-Fc fusions (homodimeric, bivalent forms).

[3] = target: T3, mouse ICOS (full length, on cells) (mouse, UniProt Q9WVS0 21-200); assay: flow cytometry on ICOS+ CHO cells
T3 construct: also called CHO-mICOS; mouse ICOS+ CHO cells
T3 sequence: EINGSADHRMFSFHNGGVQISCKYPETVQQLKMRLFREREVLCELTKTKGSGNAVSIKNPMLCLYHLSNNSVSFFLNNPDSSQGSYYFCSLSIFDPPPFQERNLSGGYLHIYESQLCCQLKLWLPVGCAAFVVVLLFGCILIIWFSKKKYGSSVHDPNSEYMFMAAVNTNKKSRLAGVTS
Description: To assess specificity, binding to human ICOS+ CHO cells and mouse ICOS+ CHO cells was individually analyzed by flow cytometry. As a control to screen out pan-reactive antibodies, staining on CHO cells lacking ICOS receptor expression was also examined. All of the selected antibodies bound to human and mouse ICOS+ CHO cells, and not to CHO cells lacking ICOS expression.

[4] = target: T4, human ICOS-hFc (homodimeric, bivalent) (human, UniProt Q9Y6W8 21-141); assay: BLI, bivalent binding to homodimeric ICOS-Fc
T4 construct: also called hICOS-Fc; hICOS-hFc; not shown: human IgG1 Fc (IgG1 backbone)
T4 sequence: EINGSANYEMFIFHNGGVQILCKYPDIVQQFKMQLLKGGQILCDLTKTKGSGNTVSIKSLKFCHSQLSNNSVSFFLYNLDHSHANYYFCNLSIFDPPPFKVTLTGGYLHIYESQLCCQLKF
Description: as §1

[5] = target: T5, cynomolgus ICOS-Fc (homodimeric, bivalent) (cynomolgus monkey, UniProt Q9Y6W8 21-140 (human entry)); assay: BLI, bivalent binding to homodimeric ICOS-Fc
T5 construct: also called cynoICOS-Fc; cyno ICOS-Fc; not shown: human IgG1 Fc (IgG1 backbone)
T5 chain: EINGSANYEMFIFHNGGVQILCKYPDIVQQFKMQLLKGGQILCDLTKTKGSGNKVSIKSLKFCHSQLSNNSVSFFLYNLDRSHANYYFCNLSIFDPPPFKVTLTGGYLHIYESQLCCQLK
Description: as §1

[6] = target: T6, human CD28 Fc fusion (dimeric) (human, UniProt P10747 19-152); assay: binding to dimeric Fc fusions of CD28 family members
T6 construct: not shown: Fc part not described
Description: (§2) To further assess the specificity of the anti-ICOS antibodies, the antibodies were screened for binding to additional members of the CD28 protein family (CD28, BTLA, PD-1 and CTLA-4). […] Specifically, binding to Fc fusions (of CD28, BTLA, PD-1 and CTLA-4) in dimeric forms was evaluated, and no binding was observed. For a subset of the CD28 family members, mouse or human protein was over-expressed on the surface of HEK293 and CHOK1 cells. No binding of antibody above background relative to untransduced parental cells was observed.

[7] = target: T7, mouse CD28 Fc fusion (dimeric) (mouse, UniProt P31041 20-150); assay: as above
T7 construct: not shown: Fc part not described
T7 sequence (looked up): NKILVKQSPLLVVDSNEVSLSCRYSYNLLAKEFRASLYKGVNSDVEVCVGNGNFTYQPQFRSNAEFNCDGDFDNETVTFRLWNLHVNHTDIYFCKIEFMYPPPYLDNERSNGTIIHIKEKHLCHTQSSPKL
Description: as §2

[8] = target: T8, human BTLA Fc fusion (dimeric) (human, UniProt Q7Z6A9 31-157); assay: as above
T8 construct: not shown: Fc part not described
T8 sequence (looked up): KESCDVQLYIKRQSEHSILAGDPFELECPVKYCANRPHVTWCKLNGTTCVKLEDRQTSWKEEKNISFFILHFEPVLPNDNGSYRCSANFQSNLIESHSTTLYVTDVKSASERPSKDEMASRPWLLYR
Description: as §2

[9] = target: T9, mouse BTLA Fc fusion (dimeric) (mouse, UniProt Q7TSA3 30-183); assay: as above
T9 construct: not shown: Fc part not described
T9 sequence (looked up): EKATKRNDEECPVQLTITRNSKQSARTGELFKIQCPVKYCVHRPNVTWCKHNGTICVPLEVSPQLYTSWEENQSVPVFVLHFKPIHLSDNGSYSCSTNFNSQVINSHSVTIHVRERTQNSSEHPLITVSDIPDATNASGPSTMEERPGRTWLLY
Description: as §2

[10] = target: T10, human PD-1 Fc fusion (dimeric) (human, UniProt Q15116 25-167); assay: as above
T10 construct: not shown: Fc part not described
Description: as §2

[11] = target: T11, mouse PD-1 Fc fusion (dimeric) (mouse, UniProt Q02242 25-167); assay: as above
T11 construct: not shown: Fc part not described
T11 sequence (looked up): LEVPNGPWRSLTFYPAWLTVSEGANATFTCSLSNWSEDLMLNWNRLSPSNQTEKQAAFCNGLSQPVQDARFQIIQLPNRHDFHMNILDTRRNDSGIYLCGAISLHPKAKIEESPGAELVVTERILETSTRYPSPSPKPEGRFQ
Description: as §2

[12] = target: T12, human CTLA-4 Fc fusion (dimeric) (human, UniProt P16410 37-162); assay: as above
T12 construct: not shown: Fc part not described
T12 sequence (looked up): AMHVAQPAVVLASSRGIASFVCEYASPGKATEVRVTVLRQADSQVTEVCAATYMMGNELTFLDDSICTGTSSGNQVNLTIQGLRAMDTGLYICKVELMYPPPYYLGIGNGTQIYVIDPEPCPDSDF
Description: as §2

[13] = target: T13, mouse CTLA-4 Fc fusion (dimeric) (mouse, UniProt P09793 36-162); assay: as above
T13 construct: not shown: Fc part not described
Description: as §2

[14] = target: T14, monovalent, heterodimeric human ICOS-Fc (human); assay: BLI (Octet RED96), IgG vs monovalent heterodimeric ICOS-Fc
T14 construct: Make-up of the heterodimer is not described; also called Monomeric hICOS; monomeric form of human ICOS; not shown: The human IgG1 Fc fused to ICOS, and the partner Fc chain of the heterodimer
T14 chain: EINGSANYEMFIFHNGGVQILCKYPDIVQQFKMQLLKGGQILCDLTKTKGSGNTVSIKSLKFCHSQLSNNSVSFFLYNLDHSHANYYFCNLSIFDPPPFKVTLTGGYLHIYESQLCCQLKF
Description: (§3) Affinity measurements were conducted using Bio-Layer Interferometry (BLI) technology (ForteBio Octet® RED96). The monovalent affinities were generated with IgG versions of the antibodies with monovalent, heterodimeric forms of the ICOS receptor. The avid affinities were generated using full-length IgGs against homodimeric forms of the ICOS receptor.

[15] = target: T4, human ICOS-hFc (homodimeric, bivalent); assay: BLI (Octet RED96), full-length IgG vs homodimeric ICOS-Fc (avid)
Description: as §3

[16] = target: T4, human ICOS-hFc (homodimeric, bivalent); assay: BLI (Octet RED96), full-length IgG vs homodimeric ICOS-Fc (avid); bivalent (homodimeric) hICOS, avid; not monomeric hICOS
Description: as §3

[17] = target: T14, monovalent, heterodimeric human ICOS-Fc; assay: BLI (Octet RED96), monovalent, monomeric ICOS; mean ± SEM of 6 experiments
Description: (§4) The affinity of a humanized antibody having the variable regions of 37A10S713 for monomeric forms of ICOS from human, cynomolgus monkey and rat was measured by Bio-Layer Interferometry (BLI) technology (ForteBio Octet® RED96) and KD's are shown in Table 5. […] Functionality of binding was confirmed by assessing potency of inducing proliferation of primary CD4+ T cells isolated from each species.

[18] = target: T15, monomeric form of cynomolgus monkey ICOS (cynomolgus monkey, UniProt Q9Y6W8 21-140 (human entry), limits assumed); assay: as above
T15 chain: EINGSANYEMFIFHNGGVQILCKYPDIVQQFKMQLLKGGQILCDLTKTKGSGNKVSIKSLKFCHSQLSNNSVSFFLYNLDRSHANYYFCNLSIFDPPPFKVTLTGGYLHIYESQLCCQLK
Description: as §4

[19] = target: T16, monomeric form of rat ICOS (rat, UniProt Q9R1T7 21-145, limits assumed); assay: as above
T16 sequence: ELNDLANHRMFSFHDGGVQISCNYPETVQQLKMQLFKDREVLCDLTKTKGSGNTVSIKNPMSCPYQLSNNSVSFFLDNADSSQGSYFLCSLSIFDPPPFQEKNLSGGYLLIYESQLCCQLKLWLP
Description: as §4

T10 sequence (Q15116 25-167): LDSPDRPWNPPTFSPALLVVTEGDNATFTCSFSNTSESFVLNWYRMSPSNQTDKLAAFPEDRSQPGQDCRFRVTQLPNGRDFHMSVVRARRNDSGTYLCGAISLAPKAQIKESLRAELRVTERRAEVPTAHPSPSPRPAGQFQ
T6 sequence (P10747 19-152): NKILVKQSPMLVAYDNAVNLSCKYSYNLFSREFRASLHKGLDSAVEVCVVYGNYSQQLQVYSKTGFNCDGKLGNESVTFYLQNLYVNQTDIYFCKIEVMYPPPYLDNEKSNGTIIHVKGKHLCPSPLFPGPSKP

B1: 2M13 (antibody, V domains shown)
VH: EVQLQQSGAELVRPGAVVKLSCKASGFDIKDYYMHWVQQRPEQGLEWIGWIDPENGNAVYDPQFQGKASITADTSSNTAYLQLSSLTSEDTAVYYCASDYYGSKGYLDVWGAGTTVTVSS
VL: QIVLTQSPTIMSASPGEKVTITCSASSSVSYMHWFQQKPGTSPKLWIYSTSNLASGVPARFGGSRSGTSYSLTISRMEAEDAATYYCQQRSSYPFTFGSGTKLEIK
notes: Purified mouse monoclonal from a hybridoma; also called anti-ICOS antibody (2M13); anti-ICOS mAb 2M13
binding result [1]: binds

B2: 2M19 (antibody, V domains shown)
VH: EVQLQQSGAELVRSGASVKLSCTTSAFNIIDYYMHWVIQRPEQGLEWIAWIDPENGDPEYAPKFQDKATMTTDTSSNTAYLQLSSLTSEDTAVYYCTAWRGFAYWGQGTLVTVSA
VL: DVVMTQTPLSLPVSLGDQASISCRSSQSLVHSNGNTYLHWYLQKPGQSPKLLIYKVSNRFSGVPDRFSGSGSGTDFTLKISRVEAEDLGVYFCSQSIHVPPTFGGGTKLEIK
notes: Purified mouse monoclonal from a hybridoma; also called anti-ICOS mAb 2M19
binding result [1]: binds

B3: 35A9 (antibody, V domains shown)
VH: EVQLVESGGGLVKPGGSLKLSCAASGFTFSDYWMDWVRQAPGKGLEWVGNIDEDGSIAEYSPFVKGRFTISRDNVKNTLYLQMNSVKSEDTATYYCSRWGRFAFDSWGQGTLVTVSS
VL: DIVMTQSPSSLAVSAGDRVTINCKSSQSLLSGSFNYLTWYQQKTGQAPKLLIFYASTRHTGVPDRFMGSGSGTDFTLTINSFQTEDLGDYYCHHHYNAPPTFGPGTKLELR
notes: Armenian hamster monoclonal tested as IgG; also called hamster anti-ICOS 35A9
binding result [2]: binds | binding result [3]: binds | Kd [4]: < 1 pM | koff [4]: < 1e-07 s⁻¹ | kon [4]: 1.01e+06 M⁻¹ s⁻¹ | Kd [5]: < 1 pM | koff [5]: < 1e-07 s⁻¹ | kon [5]: 740000 M⁻¹ s⁻¹ | binding result [6]: no binding | binding result [7]: no binding | binding result [8]: no binding | binding result [9]: no binding | binding result [10]: no binding | binding result [11]: no binding | binding result [12]: no binding | binding result [13]: no binding | Kd [14]: 2.45 nM | koff [14]: 0.000438 s⁻¹ | kon [14]: 178000 M⁻¹ s⁻¹ | koff [15]: < 1e-07 s⁻¹ | kon [15]: 625000 M⁻¹ s⁻¹ | Kd [16]: < 1 pM

B4: 37A10S713 (antibody, V domains shown)
VH: EVQLVESGGGLVQPGGSLRLSCAASGFTFSDYWMDWVRQAPGKGLVWVSNIDEDGSITEYSPFVKGRFTISRDNAKNTLYLQMNSLRAEDTAVYYCTRWGRFGFDSWGQGTLVTVSS
VL: DIVMTQSPDSLAVSLGERATINCKSSQSLLSGSFNYLTWYQQKPGQPPKLLIFYASTRHTGVPDRFSGSGSGTDFTLTISSLQAEDVAVYYCHHHYNAPPTFGPGTKVDIK
notes: also called humanized antibody having the variable regions of 37A10S713; 37A10S713-hIgG1
Kd [17]: 1.5 nM | Kd [18]: 0.66 nM | Kd [19]: 7.2 nM
